The target in one experiment is T1, EGF4+5.
T1 construct: also called Hu DLL3 EGF4+5 on HEK293 cells
T1 membrane-anchored DLL3 subdomain construct: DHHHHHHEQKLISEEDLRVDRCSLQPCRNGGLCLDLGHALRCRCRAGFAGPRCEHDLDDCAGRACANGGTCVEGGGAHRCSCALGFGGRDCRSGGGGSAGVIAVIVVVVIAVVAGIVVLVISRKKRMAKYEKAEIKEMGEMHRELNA
Nature of the experiment: flow cytometry on HEK293 cells expressing the DLL3 subdomain construct, PE anti-human secondary, control: secondary antibody only. The protocol: (§1) DLL3/CD3 binding proteins were produced by transient transfection of CHO-E cells with the pTT5 vectors carrying the chain-encoding genes, as described in Example 2. […] Bound molecules were detected with PE-conjugated anti-human secondary antibody (Sigma-Aldrich, #P8047). As negative control, cells were incubated with secondary antibody only.
(§2) The samples were measured by flow-cytometry. […] The sequences of the epitope domains are listed in Example 5, Table 3.
(In flow cytometry, cells or beads pass a laser one at a time.)

The target in another experiment is T2, EGF2+3.
T2 construct: also called Hu DLL3 EGF2+3 on HEK293 cells
T2 membrane-anchored DLL3 subdomain construct: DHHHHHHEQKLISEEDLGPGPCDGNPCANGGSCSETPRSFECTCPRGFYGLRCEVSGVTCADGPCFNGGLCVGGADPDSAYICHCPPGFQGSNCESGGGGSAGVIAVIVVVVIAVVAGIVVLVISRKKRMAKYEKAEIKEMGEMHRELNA
The experiment is described as above. The protocol: as §1, §2

In experiment [1] the target is T3, EGF6+MEMBRANE PROXIMAL PEPTIDE.
T3 construct: also called Hu DLL3 EGF6+membrane proximal peptide on HEK293 cells
T3 membrane-anchored DLL3 subdomain construct: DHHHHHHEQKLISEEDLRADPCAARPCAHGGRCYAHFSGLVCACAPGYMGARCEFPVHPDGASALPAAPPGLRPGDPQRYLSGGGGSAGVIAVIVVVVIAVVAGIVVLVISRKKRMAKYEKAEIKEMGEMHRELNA
Described as above. The protocol:
as §1, §2

The target in the next experiment is T4, EGF3+4.
T4 construct: also called Hu DLL3 EGF3+4 on HEK293 cells
T4 membrane-anchored DLL3 subdomain construct: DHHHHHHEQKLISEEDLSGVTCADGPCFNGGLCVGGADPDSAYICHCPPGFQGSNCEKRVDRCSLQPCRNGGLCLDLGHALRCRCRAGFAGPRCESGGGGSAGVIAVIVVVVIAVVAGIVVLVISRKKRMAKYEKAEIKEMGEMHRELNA
The experiment is described as above. On the procedure: as §1, §2

For a further experiment, the target named is T5, EGF1+2.
T5 construct: also called Hu DLL3 EGF1+2 on HEK293 cells
T5 membrane-anchored DLL3 subdomain construct: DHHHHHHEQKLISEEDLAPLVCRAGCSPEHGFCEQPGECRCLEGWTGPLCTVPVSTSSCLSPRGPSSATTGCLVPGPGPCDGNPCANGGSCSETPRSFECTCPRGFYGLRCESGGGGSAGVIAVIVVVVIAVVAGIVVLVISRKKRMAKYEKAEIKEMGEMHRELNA
The description is as above. On the procedure:
as §1, §2

The target in the next experiment is T6, EGF5+6.
T6 construct: also called Hu DLL3 EGF5+6 on HEK293 cells
T6 membrane-anchored DLL3 subdomain construct: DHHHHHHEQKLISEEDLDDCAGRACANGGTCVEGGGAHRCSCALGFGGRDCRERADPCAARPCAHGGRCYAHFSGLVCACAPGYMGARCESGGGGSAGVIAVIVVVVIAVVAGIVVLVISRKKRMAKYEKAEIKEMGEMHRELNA
The description is as above. The protocol: as §1, §2

The target of experiment [2] is T7, human DLL3 (endogenous, on SCLC cell lines NCI-H82 and SHP77 and in SCLC tissue) (human, UniProt Q9NYJ7 27-618).
T7 construct: whole, on cells; also called SCLC cell lines expressing DLL3
T7 sequence (looked up): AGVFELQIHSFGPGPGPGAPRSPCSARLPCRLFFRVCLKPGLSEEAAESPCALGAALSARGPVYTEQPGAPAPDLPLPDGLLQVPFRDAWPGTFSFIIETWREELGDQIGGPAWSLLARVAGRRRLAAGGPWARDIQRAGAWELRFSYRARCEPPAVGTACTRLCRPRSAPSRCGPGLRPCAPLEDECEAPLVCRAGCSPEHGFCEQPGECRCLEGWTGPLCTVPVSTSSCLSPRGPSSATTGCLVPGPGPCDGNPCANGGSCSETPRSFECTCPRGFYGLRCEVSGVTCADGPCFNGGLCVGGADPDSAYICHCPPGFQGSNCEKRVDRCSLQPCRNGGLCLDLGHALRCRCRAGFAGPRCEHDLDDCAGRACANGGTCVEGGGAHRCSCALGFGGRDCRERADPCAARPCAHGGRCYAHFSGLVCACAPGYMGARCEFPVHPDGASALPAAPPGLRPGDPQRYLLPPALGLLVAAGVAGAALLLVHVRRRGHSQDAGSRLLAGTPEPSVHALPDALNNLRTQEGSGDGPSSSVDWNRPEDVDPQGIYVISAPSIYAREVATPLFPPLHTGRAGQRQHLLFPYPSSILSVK
Kind of experiment: flow cytometry titration on SHP77 cells, PE anti-human secondary, x-fold over background. The text has this:
(§3) Cells (T cells or human SCLC cells) were stained with increasing concentrations of two-step purified DLL3/CD3 binding proteins with increasing concentrations in FACS buffer (PBS/0.5% BSA/0.05% sodium azide). Bound molecules were detected with PE-conjugated anti-human secondary antibody (Sigma-Aldrich, #P8047).

Experiment [3] addresses T7, human DLL3 (endogenous, on SCLC cell …). Kind of experiment: flow cytometry titration on NCI-H82 cells, PE anti-human secondary, x-fold over background.
Excerpt: as §3

For the next experiment, the target named is T8, Human CD3 E+G HuFc-6xHis (human).
T8 construct: also called hu CD3εγ-Fc
T8 sequence (chain, as listed by the source limits assumed): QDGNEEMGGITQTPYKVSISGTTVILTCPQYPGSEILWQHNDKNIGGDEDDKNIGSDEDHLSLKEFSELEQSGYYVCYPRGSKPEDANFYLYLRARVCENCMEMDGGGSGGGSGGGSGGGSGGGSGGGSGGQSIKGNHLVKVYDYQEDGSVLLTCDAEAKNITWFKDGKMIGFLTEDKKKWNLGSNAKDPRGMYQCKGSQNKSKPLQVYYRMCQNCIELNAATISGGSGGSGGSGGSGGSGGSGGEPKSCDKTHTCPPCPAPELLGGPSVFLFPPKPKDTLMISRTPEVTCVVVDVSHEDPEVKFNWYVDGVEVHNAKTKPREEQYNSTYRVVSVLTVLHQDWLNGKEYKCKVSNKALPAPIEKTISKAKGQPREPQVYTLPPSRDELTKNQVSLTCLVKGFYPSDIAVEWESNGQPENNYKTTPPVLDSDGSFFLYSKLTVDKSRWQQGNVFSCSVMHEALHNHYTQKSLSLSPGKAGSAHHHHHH
Nature of the experiment: SPR (ProteOn XPR36), HuCD3E_HuCD3G-Fc amine-coupled, bispecific as analyte, Example 4B. On the procedure:
(§4) The binding affinity of purified DLL3/CD3 bispecific constructs for recombinant human DLL3-ECD and Fc-fusion protein of human CD3 εγ subunits was determined by Surface Plasmon Resonance (SPR), using a ProteOn XPR36 instrument (Bio-Rad).
For binding kinetic determination to CD3, HuCD3E_HuCD3G-Fc (dissolved in pH 4.5 acetate) was immobilized directly onto the sensor surface through amine coupling for 360 sec at a flowrate of 30 μl/min vertically. The baseline was stabilized by injecting PBS-T-EDTA for 60 sec at a flowrate of 30 μl/min horizontally. The analytes (all anti-DLL3/CD3 molecules) were injected horizontally over the captured antibody for 600 sec at a flowrate of 30 μl/min and a dissociation for 1800 sec.

The target in experiment [4] is T9, trypsin inhibitor from glycine max soybean (Glycine max (soybean)).
T9 construct: also called Tryp
T9 sequence (P01070 25-205): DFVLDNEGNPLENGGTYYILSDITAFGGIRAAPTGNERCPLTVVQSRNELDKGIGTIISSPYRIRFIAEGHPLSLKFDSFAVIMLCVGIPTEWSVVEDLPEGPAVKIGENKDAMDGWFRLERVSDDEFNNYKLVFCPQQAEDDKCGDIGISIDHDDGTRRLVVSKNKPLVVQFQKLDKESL
Kind of experiment: SPR (Biacore T200), trypsin inhibitor on CM5 chip, sample at 1 µM. The text has this: To prepare the surface for the non-specific binding experiment, chicken egg white lysozyme and trypsin inhibitor from glycine max soybean were coupled manually to a series S CM5 chip with the surface density of 3000-5000 RU using the amine coupling kit according to the manufacture instructions.
(In general: Surface plasmon resonance follows binding to a sensor surface in real time, without labels.)

In another experiment the target is T10, Human DLL3-His (human, UniProt Q9NYJ7 27-492).
T10 construct: also called huDLL3-His; hu DLL3
T10 sequence: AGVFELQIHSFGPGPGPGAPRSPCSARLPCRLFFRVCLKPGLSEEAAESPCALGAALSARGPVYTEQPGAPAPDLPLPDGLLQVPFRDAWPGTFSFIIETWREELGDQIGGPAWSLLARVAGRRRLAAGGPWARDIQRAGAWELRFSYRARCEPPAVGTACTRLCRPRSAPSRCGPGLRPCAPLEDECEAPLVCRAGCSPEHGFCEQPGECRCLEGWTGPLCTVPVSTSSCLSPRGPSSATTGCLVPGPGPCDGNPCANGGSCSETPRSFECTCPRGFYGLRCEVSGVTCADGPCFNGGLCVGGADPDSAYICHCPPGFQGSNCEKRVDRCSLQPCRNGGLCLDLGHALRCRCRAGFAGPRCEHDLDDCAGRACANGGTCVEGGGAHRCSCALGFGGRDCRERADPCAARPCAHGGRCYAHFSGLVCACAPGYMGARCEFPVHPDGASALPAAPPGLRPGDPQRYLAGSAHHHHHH
Nature of the experiment: SPR (ProteOn XPR36), bispecific captured on protein A/G, hu DLL3 as analyte, Example 4B. On the procedure: as §4
For binding kinetic determination to DLL3, anti-DLL3/CD3 molecules were captured individually on the protein A/G surface vertically for 200 sec at a flowrate of 30 μl/min. The baseline was stabilized by injecting PBS-T-EDTA for 60 sec at a flowrate of 30 μl/min horizontally. The analyte (hu DLL3) was injected horizontally over the captured antibody for 300 sec at a flowrate of 30 μl/min and a dissociation for 1800 sec.

B1: DLL3#15/CD3#1 (bispecific antibody, human IgG1, kappa, lambda, L234A L235A)
chain 1: not shown
chain 2: EAVVTQEPSLTVSPGGTVTLTCRSSTGAVTTSNYANWVQEKPGQLPRGLIGGTNKRAPWVPARFSGSLLGGKAALTLSGAQPEDEAEYFCALWYSNLWVFGGGTKLTVLGQPKAAPSVTLFPPSSEELQANKATLVCLISDFYPGAVKVAWKADGSPVNTGVETTTPSKQSNNKYAASSYLSLTPEQWKSHRSYSCQVTHEGSTVEKTVAPAECSGGGGSEGKSSGSGSESKSTEGKSSGSGSESKSTGGGGSEVQLVESGGGLVQPGGSLKLSCAASGFTFNTYAMNWVRQAPGKGLEWVARIRSKYNNYATYYADSVKDRFTISRDDSKNTAYLQMNNLKTEDTAVYYCVRHGNFGNSYVSWFAYWGQGTLVTVSAASTKGPSVFPLAPSSKSTSGGTAALGCLVKDYFPEPVTVSWNSGALTSGVHTFPAVLQSSGLYSLSSVVTVPSSSLGTQTYICNVNHKPSNTKVDKRVEPKSCDKTHTCPPCPAPEAAGGPSVFLFPPKPKDTLMISRTPEVTCVVVDVSHEDPEVKFNWYVDGVEVHNAKTKPREEQYNSTYRVVSVLTVLHQDWLNGKEYKCKVSNKALPAPIEKTISKAKGQPREPQVYTLPPSREEMTKNQVSLSCAVKGFYPSDIAVEWESNGQPENNYKTTPPVLDSDGSFFLVSKLTVDKSRWQQGNVFSCSVMHEALHNRFTQKSLSLSPG
notes: Heterodimer of one DLL3 chain and one CD3 chain (scFab-Fc, knob-in-hole); SPR not given
As for B1, the binding result (with EGF4+5; with EGF2+3; in experiment [1]; with EGF3+4; with EGF1+2; in the experiment with EGF5+6) was “no binding (tested: 1.6 nM)” throughout. Besides, the results for the “EC50 (read off the curve)” value in [2] and in [3] were approximately 2 nM and approximately 1 nM, respectively.

B2: DLL3#16/CD3#1 (bispecific antibody, human IgG1, kappa, lambda, L234A L235A)
chain 1: DIQMTQSPSTLSASVGDRVTITCRASQSVSDWLAWYQQKPGKAPKFLIYRASSLESGVPSRFSGSGSGTEFTLTISSLQPADFATYYCQLYNSYSPTFGQGTKVEIKRTVAAPSVFIFPPSDEQLKSGTASVVCLLNNFYPREAKVQWKVDNALQSGNSQESVTEQDSKDSTYSLSSTLTLSKADYEKHKVYACEVTHQGLSSPVTKSFNRGECGGGGSEGKSSGSGSESKSTEGKSSGSGSESKSTGGGGSEVHLVESGGGLVQPGGSLRLSCAASGFTFSSYWMTWVRQAPGKGLEWVANIKEDGSEKYYVDSVKGRFTISRDNAKNSLYLQMNSLRAEDTALYYCARDWGYFDYWGQGTLVTVSSASTKGPSVFPLAPSSKSTSGGTAALGCLVKDYFPEPVTVSWNSGALTSGVHTFPAVLQSSGLYSLSSVVTVPSSSLGTQTYICNVNHKPSNTKVDKRVEPKSCDKTHTCPPCPAPEAAGGPSVFLFPPKPKDTLMISRTPEVTCVVVDVSHEDPEVKFNWYVDGVEVHNAKTKPREEQYNSTYRVVSVLTVLHQDWLNGKEYKCKVSNKALPAPIEKTISKAKGQPREPQVYTLPPSREEMTKNQVSLWCLVKGFYPSDIAVEWESNGQPENNYKTTPPVLDSDGSFFLYSKLTVDKSRWQQGNVFSCSVMHEALHNHYTQKSLSLSPG
chain 2: B1 chain 2
notes: Heterodimer of one DLL3 chain and one CD3 chain (scFab-Fc, knob-in-hole)
For the molecule B2, the binding result (in the experiment with EGF4+5; in the experiment with EGF2+3; in experiment [1]; with EGF3+4; with EGF1+2; in the experiment with EGF5+6) was “no binding (tested: 1.6 nM)” throughout. In addition, the Kd with Human CD3 E+G HuFc-6xHis is 2 nM; with Human DLL3-His, 0.228 nM. Moreover, the “Non-specific binding (RU)” value in experiment [4] turned out to be 0 RU.

B3: DLL3#14/CD3#1 (bispecific antibody, human IgG1, kappa, lambda, L234A L235A)
chain 1: not shown
chain 2: B1 chain 2
notes: as for B2
For the molecule B3, the binding result (with EGF4+5; with EGF2+3; in [1]; in the experiment with EGF3+4; with EGF1+2; with EGF5+6) was “no binding (tested: 1.6 nM)” throughout. For the same molecule, the Kd in the experiment with Human CD3 E+G HuFc-6xHis came out at 3 nM; with Human DLL3-His, 0.06 nM. Also, in [4], the “Non-specific binding (RU)” value is 6 RU.

Usually EC50 (read off the curve) stands for the concentration needed to bring the measured effect to its halfway point. Read a low EC50 (read off the curve) as an effect from little substance. One may read the Kd as the concentration at which binding is half-saturated. Low values mean a tighter complex, high ones a looser complex.
